Assay results from patent publication US20240016931A1 (JIANGSU HENGRUI PHARMACEUTICALS, published 2024).
Changes are numbered by the printed parent chain. Names and notes keep the numbering of the source.

B1: hu179-33 (antibody, human IgG1, kappa, V domains shown)
VH: EVQLVQSGAEVKKPGSSVKVSCKASGYTFSNYLIEWVRQAPGQGLEWIGVIDPGVGDTNYNENFKGRATLTADKSTSTAYIELSSLRSEDTAVYYCAREDNTGTAFDYWGQGTTVTVSS
VL: SIVMTQTPLSLSVTPGQPASISCKASQSVSSDVTWYLQKPGQSPQLLIYYVSEHYTGVPDRFSGSGYGTDFTLKISRVEAEDVGVYYCQQHHRFPLTFGQGTKLEIKR
notes: IgG1-YTE, kappa; also called hu179VH3-N55V + hu179VL8-N53E
B2: AMG157 (tezepelumab, anti-TSLP antibody) (antibody, human IgG2, lambda, V domains shown)
VH: QMQLVESGGGVVQPGRSLRLSCAASGFTFRTYGMHWVRQAPGKGLEWVAVIWYDGSNKHYADSVKGRFTITRDNSKNTLNLQMNSLRAEDTAVYYCARAPQWELVHEAFDIWGQGTMVTVSS
VL: SYVLTQPPSVSVAPGQTARITCGGNNLGSKSVHWYQQKPGQAPVLVVYDDSDRPSWIPERFSGSNSGNTATLTISRGEAGDEADYYCQVWDSSSDHVVFGGGTKLTVLG
notes: positive control
B3: hu119-30 (antibody, human IgG1, kappa, V domains shown)
VH: EAQLVQSGAEVKKPGSSVKVSCKASGFTFSTYNMHWVRQAPGQGLEWIGAIYPGNGETSYNQKFKDRATLTVDKSTRTAYMELSSLRSEDTAVYYCAREDDYGEGYFDVWGQGTTVTVSS
VL: DIVLTQSPATLSLSPGERATLSCRASESVDSSGLSFMHWYQQKPGQPPRLLLYRASNLGSGIPARFSGSGSGTDFTLTISSLEPEDFAVYYCQQINTDPLTFGQGTKLEIKR
notes: IgG1-YTE, kappa; also called hu119VH8 + hu119VL6-N31S
B4: hu199-36 (antibody, human IgG1, kappa, V domains shown)
VH: EVQLVQSGAEVKKPGASVKVSCKASGYTFTTYWMHWVKQAPGQGLEWMGMIDPSDSETTLIQKFKDKVTLTVDKSTSTAYMELSSLRSEDTAVYYCARTLDGYYDYWGQGTTVTVSS
VL: DIQMTQSPSSLSASVGDRVTITCRASENIYSYLAWYQQKPGKSPQLLVYFAKTLAEGVPSRFSGSVSGTQFTLTISSLQPEDFATYYCQHHYGTPWTFGGGTKVEIKR
notes: IgG1-YTE, kappa
B5: hu3-11 (antibody, human IgG1, kappa, V domains shown)
VH: EVQLVQSGAEVKKPGASVKVSCKASGYTFTDDYMNWVRQAPGQRLEWMGIISPYNGGTSYNQKFKGRVTLTVDKSASTAYMELSSLRSEDTAVYYCAREDYDYDGYAMDYWGQGTTVTVSS
VL: EIVLTQSPATLSLSPGERATLSCRASSSVSYMHWYQQKPGQAPRPWIYATSNLASGVPARFSGSGSGTSYTLTISRLEPEDFAVYYCQQWSSDRTFGGGTKVEIKR
notes: IgG1-YTE, kappa; also called hu3VH2-H110Y + hu3VL4-N93D
B6: hu3-13 (antibody, human IgG1, kappa, V domains shown)
VH: B5 VH
VL: B5 VL with W90S, S91D, D93G, T95E
notes: IgG1-YTE, kappa; also called hu3VH2-H110Y + hu3VL6

What was measured:
[1] = molecular target: T1, native TSLP (human, UniProt Q969D9 29-159); experiment: cell-based or functional assay
[2] = molecular target: T2, His-tagged human TSLP antigen (huTSLP-his) (human); experiment: Biacore (SPR)
T2 construct: Secreted from HEK293E and purified on nickel; whole entry named; also called Human TSLP-his

[3] = molecular target: T3, Fc-tagged human TSLP antigen (huTSLP-Fc) (human, biotin-labeled in the blocking assays); experiment: cell-based or functional assay
[4] = molecular target: T4, His-tagged cynomolgus monkey TSLP antigen (cynoTSLP-His) (cynomolgus monkey); experiment: Biacore T200, antibody captured on Protein A chip, antigen in flow, 1:1 Langmuir
T4 construct: whole entry named
T4 chain: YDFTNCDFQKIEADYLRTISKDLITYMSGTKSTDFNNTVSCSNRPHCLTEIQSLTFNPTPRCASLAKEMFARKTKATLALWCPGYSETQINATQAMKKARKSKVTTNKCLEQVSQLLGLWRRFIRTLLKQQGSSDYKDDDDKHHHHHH

[5] = molecular target: T2, His-tagged human TSLP antigen …; experiment: as above
[6] = molecular target: T3, Fc-tagged human TSLP antigen (huTSLP-Fc); experiment: competition FACS: biotin-TSLP-Fc binding to CHOK1-TSLPR/IL-7R cells
[7] = molecular target: T3, Fc-tagged human TSLP antigen (huTSLP-Fc); experiment: competition ELISA: biotin-huTSLP-Fc binding to coated human-TSLPR-Fc-ECD
[8] = molecular target: T1, native TSLP; experiment: cell-based or functional assay; remark: listed apart in the source
[9] = molecular target: T3, Fc-tagged human TSLP antigen (huTSLP-Fc); experiment: competition ELISA: plate coated with human-TSLPR-Fc-ECD, biotin-labeled huTSLP-Fc premixed with the antibody dilution series, streptavidin-peroxidase detection, OD450; blocked ligand-receptor pair is TSLP and TSLPR
[10] = molecular target: T2, His-tagged human TSLP antigen …; experiment: ELISA, coated huTSLP-his;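 also: binding of antibodies to plate-bound TSLP read as absorbance at 450 nm after TMB colour development, EC50 derived from binding curves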
[11] = molecular target: T3, Fc-tagged human TSLP antigen (huTSLP-Fc); experiment: competition ELISA: blocks TSLP binding to TSLP receptor
[12] = molecular target: T2, His-tagged human TSLP antigen …; experiment: ELISA on human TSLP

Row | Binder | activity in inhibiting native TSLP-stimulated proliferation of BaF3, relative to AMG157 [1] | Kd [2] | IC50 (nM), inhibition of TSLP-induced proliferation of BaF3 cells overexpressing TSLPR/IL-7R [3] | Kd [4] | Kd [5] | IC50 [6] | IC50 [7] | IC50 (nM), inhibition of native TSLP-induced proliferation of BaF3-TLSPR/IL-7R cells [8] | IC50 (read off the curve) [9] | EC50 [10] | IC50 [11] | binding result [12]
1 | B1 | 100 times | 0.000903 nM | 0.409 nM | 0.0304 nM | 0.000903 nM | 0.187 nM | 0.504 nM | 0.0228 nM |  |  |  | 
2 | B2 |  | 0.00812 nM | 0.573 nM | 0.00922 nM | 0.00812 nM | 0.207 nM |  |  | ~0.5 nM | 0.722 nM |  | 
3 | B3 |  |  | 0.43 nM | 1.95 nM | 0.005 nM | 0.137 nM | 0.519 nM | 1.53 nM |  |  |  | 
4 | B4 |  |  | 0.477 nM | 0.0172 nM | 0.0105 nM | 0.227 nM | 0.569 nM |  |  |  | 0.727 nM | 
5 | B5 |  |  |  |  |  |  |  |  |  |  |  | binds
6 | B6 |  |  | 0.444 nM | 0.34 nM | 0.001 nM | 0.133 nM | 0.497 nM | 0.289 nM |  | 0.148 nM |  | 
